B1: EstL5 (Geobacillus thermodenitrificans) (protein)
chain: ALVVQDQLFTAAKPSIEQKRPSANEAKKRDGEIDIVALGDSLTRGTGDESGKGYIGYMVDELRQQTDEPIRVTNLAIRGLRSDGLLRQLGQSEIQRQIAMADLIVMTIGGNDLFQGGEALEWNVKELDEAKRQYIANLDRIFALLRRLNSEAVIFAIGLYNPFSDLDDAKRTSAIVRDWNFASAEVAAHYPNIVAVPTFDLFALHVNDYLYSDHFHPNKEGYKRIGERVASLITLTEEDRQ
notes: without deduced signal peptide, N-terminal His tag, pET28b, E. coli BL21(DE3); two molecules in asymmetric unit
B2: EstL5 (Geobacillus thermodenitrificans; S207F) (protein)
chain: B1 chain with S183F
notes: as for B1
B3: EstL5 (Geobacillus thermodenitrificans; S207W) (protein)
chain: B1 chain with S183W
notes: as for B1

By Km is commonly meant the substrate concentration at which the rate is half of its maximum.

Where a chain is given by its changes, count along the chain named. Names may count otherwise.

Substrate in this data set: CCCC(=O)Oc1ccc([N+](=O)[O-])cc1
Briefly: purified protein. It counts as biochemical, Geobacillus thermodenitrificans. Particulars: 20 mM Tris-HCl pH 8.0, 30°C.
For the protein B1, the Km was 640 ± 2210 µM and the kcat turned out to be 116.27±1.71 S-1.
In the same order, the values of B2 are 650 ± 1920 µM and 86.51±1.68 S-1.
On to B3, for which the Km was 790 ± 2670 µM and the kcat is recorded as 86.78±1.03 S-1.

For the origin of these results see publication PMC10686790, “Crystal structure of the GDSL family esterase EstL5 in complex with PMSF reveals a branch channel of the active site pocket” (Acta Biochimica et Biophysica Sinica, 2023).
